In article PMC3478510, “LI-cadherin cis-dimerizes in the plasma membrane Ca^2+ independently and forms highly dynamic trans-contacts” (Cellular and Molecular Life Sciences: CMLS, 2012):

Columns and labels:
[1] = molecular target: LI-cadherin ECD (Homo sapiens) (UniProt Q12864); conditions: cited from earlier work
[2] = molecular target: T1, LI-cadherin C-terminally tagged with cyan (LI-CFP) or yellow (LI-YFP) fluorescent protein (UniProt Q9R100 26-827); test: FRET or BRET; FRET competition: twofold excess of untagged LI-cadherin coexpressed with LI-CFP and LI-YFP in HEK293 cells; acceptor photobleaching; conditions: partners not purified
T1 construct: LI-cadherin (cadherin-17); Two differently tagged copies of the same protein (CFP donor, YFP acceptor), co-expressed for FRET; In the control with EGFR-CFP only the YFP-tagged copy was present; also called LI-cadherin-CFP fusion protein; LI-cadherin-YFP fusion protein; source: HEK293, transfected (FuGENE-6), in living cells; not shown: CFP (on one copy) or YFP (on the other copy), C-terminal, kept
T1 sequence (looked up): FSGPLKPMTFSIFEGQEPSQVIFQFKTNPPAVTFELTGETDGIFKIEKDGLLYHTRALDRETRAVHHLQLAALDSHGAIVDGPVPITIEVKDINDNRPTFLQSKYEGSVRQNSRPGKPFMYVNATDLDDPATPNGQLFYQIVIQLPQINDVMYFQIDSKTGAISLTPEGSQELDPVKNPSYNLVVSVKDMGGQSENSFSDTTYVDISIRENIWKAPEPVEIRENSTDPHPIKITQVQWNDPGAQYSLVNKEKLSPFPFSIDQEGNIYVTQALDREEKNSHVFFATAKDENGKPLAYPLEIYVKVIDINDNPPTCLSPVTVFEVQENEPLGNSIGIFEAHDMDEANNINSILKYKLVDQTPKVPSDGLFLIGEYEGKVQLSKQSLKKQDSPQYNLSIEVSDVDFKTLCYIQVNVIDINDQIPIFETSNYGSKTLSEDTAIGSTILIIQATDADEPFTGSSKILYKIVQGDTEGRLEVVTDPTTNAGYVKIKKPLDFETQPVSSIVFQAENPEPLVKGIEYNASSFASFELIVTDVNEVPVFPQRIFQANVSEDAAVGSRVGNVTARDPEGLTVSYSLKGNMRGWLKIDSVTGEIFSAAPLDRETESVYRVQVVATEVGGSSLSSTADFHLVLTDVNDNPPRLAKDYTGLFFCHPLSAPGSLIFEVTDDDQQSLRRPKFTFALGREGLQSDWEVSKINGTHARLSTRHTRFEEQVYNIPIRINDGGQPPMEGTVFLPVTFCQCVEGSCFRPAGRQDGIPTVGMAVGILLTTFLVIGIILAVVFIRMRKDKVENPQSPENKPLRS

Chain of LI-cadherin ECD (Q12864 23-787): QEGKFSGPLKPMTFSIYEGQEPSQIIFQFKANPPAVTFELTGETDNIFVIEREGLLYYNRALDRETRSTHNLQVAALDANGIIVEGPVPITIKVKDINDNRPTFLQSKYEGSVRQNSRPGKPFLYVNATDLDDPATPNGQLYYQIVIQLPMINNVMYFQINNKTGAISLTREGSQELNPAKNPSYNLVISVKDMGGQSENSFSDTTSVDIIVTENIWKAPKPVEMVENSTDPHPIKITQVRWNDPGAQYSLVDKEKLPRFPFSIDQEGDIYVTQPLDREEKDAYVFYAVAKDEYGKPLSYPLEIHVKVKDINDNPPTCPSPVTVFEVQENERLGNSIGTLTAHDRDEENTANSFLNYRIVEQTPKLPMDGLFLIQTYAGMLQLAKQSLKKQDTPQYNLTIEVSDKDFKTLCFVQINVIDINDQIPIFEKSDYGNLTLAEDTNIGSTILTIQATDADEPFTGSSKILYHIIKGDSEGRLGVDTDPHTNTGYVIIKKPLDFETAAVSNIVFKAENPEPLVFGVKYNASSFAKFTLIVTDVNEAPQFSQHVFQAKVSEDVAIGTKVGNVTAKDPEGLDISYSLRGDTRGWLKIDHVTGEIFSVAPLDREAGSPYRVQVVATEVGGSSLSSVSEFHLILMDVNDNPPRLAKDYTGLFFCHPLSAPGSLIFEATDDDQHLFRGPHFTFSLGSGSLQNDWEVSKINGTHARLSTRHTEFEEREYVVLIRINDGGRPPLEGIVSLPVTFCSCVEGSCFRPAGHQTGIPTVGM

Molecule	Kd [1] [µM]	FRET efficiency of LI-CFP/LI-YFP with a twofold excess of untagged LI-cadherin [2] [%]
LI-cadherin ECD (from UniProt Q12864)	27	
untagged LI-cadherin (natural protein, UniProt Q9R100 26-827, looked up, LI-cadherin (cadherin-17), untagged wild type; The expression construct of the untagged protein is not described in the methods; also called LIwt; wild-type LI; source: HEK293, transfected, in living cells (twofold excess, coexpressed with LI-CFP and LI-YFP)) FSGPLKPMTFSIFEGQEPSQVIFQFKTNPPAVTFELTGETDGIFKIEKDGLLYHTRALDRETRAVHHLQLAALDSHGAIVDGPVPITIEVKDINDNRPTFLQSKYEGSVRQNSRPGKPFMYVNATDLDDPATPNGQLFYQIVIQLPQINDVMYFQIDSKTGAISLTPEGSQELDPVKNPSYNLVVSVKDMGGQSENSFSDTTYVDISIRENIWKAPEPVEIRENSTDPHPIKITQVQWNDPGAQYSLVNKEKLSPFPFSIDQEGNIYVTQALDREEKNSHVFFATAKDENGKPLAYPLEIYVKVIDINDNPPTCLSPVTVFEVQENEPLGNSIGIFEAHDMDEANNINSILKYKLVDQTPKVPSDGLFLIGEYEGKVQLSKQSLKKQDSPQYNLSIEVSDVDFKTLCYIQVNVIDINDQIPIFETSNYGSKTLSEDTAIGSTILIIQATDADEPFTGSSKILYKIVQGDTEGRLEVVTDPTTNAGYVKIKKPLDFETQPVSSIVFQAENPEPLVKGIEYNASSFASFELIVTDVNEVPVFPQRIFQANVSEDAAVGSRVGNVTARDPEGLTVSYSLKGNMRGWLKIDSVTGEIFSAAPLDRETESVYRVQVVATEVGGSSLSSTADFHLVLTDVNDNPPRLAKDYTGLFFCHPLSAPGSLIFEVTDDDQQSLRRPKFTFALGREGLQSDWEVSKINGTHARLSTRHTRFEEQVYNIPIRINDGGQPPMEGTVFLPVTFCQCVEGSCFRPAGRQDGIPTVGMAVGILLTTFLVIGIILAVVFIRMRKDKVENPQSPENKPLRS		5.2
